Test results taken from patent US20240271091A1 (University of Pennsylvania, published 2024).
No end group written: not given here.

Target: BSA (UniProt P02769 25-607)
Experiment: UV photocrosslinking of hIgG2 in the presence of BSA

B1: photoreactive Protein G (pAbBD), BPA position not stated (designed binder)
chain: MTFKLIINGKTLKGEITIEAVDAAEAEKIFKQYANDYGIDGEWTYDDATKTFTVTE
modifications: also: contains benzoylphenylalanine (BPA), position not given here
B1: no binding (tested: 1% BSA solution (200-times molar excess)).
